Reference: the DeepSol protein solubility set

assay: soluble on expression in E. coli; label from the status in PepcDB or PDB records

| Sequence | soluble on expression in E. coli |
| --- | --- |
| MITPSRYPGIYIAPLSSEPTAAHTFKEQAEKALDHISAGPSGRELLQEISKLASKKDRKVTLKEIEINNQCYTDAVLSRRQLEKYEPEDFNENRRIASRLSRKGTFTKGEGSNAIIGWSPDKASIRLNQNGSPLRLGMDNDDKITTLAHELVHVRHVLSGSSLADDGDRYNPRTGSGKEELRAVGLDKYSYSLTKEPSENSIRAEHGLPLRMKYRPHQ | not soluble |
| MGSDKIHHHHHHADWKVGIQTWTFHNLTLMETLDKTQQLGMGYAEAFFFQELGAPFPKETYLNYDLSDDNCALLRHEFKIRGIKPIAFGVASYGTNEEWDKFFAFAHKIGAHIVTVEPELNQLDYIESLAKKYDMEVAIHNHPSPCIYASAEVVEKALKGRSPLMGVCADIGHWKRVGEDPLKNLQKLSGRIKVAHLKDLTDKMEDATWGTGILPVKAFVNELKRQHFNGLISIEYDDFKSDIQEIRNSLEFLQKCSK | not soluble |
| MSLNFEYIINSLLETIKTYNFFVDWEKIENNIKKIEKRLHILNYLIGKENFKEEFFELLKEYPEVITVFPILIAVRDNKITILNENMELETLEFKEKKYLTDEEIERYYKFFKETGLEDLLKNRKIKNLVDYVFGVEVGMDTNARKNRIGDLMENIVKKYIENLCKQNKNLDYIFQATKDKIKQKWGINLTLDKTNRKFDFAVFNKNTKKLYLIEVNFYSGGGSKLKATAGEYRSLNEFIKNNNNNVQFIWITDGKGWNTAKNPLKESFNSGVVILNLKMVKEGLLKEILTQEGHHHHHH | soluble |
| MAHHHHHHMVHWVISQFTTNVGLQQKSSIELLNEANREYESSSPFSVLVQHERAVERLTTAQRGLAASGAGSLARLDRDQLPSWTLRVIDEDCTMCFDNVTYASAVAADAGRSTNKTGHHKQKGLSVFATTSAPLGLMGPMLFAMASVTDDVDVAAELPRWQWVTWSYAQQRRFVHASQSRSTGERPRHLIVLGIPSTDQPMRYPLRDAQRATWLTYREVARTENNFTGALLQLYVFAAAEHDSEDSTHSAVDMVQLAPTVSEYAAATEQHLAVEAGDVNNAPPYLQRRVVLRDGWRDIPRSDDAVWRSPCAGVRTTVVTAASLVAGTSSLAALSAQLSLPVTPAFTAAAQYVCHVSAALWQEALHHRNSLWLDFLTDRKPTTKKKMGMSISWGIPTEVGMSQKTVLWLNYAYTAFPDVPYIMKGDDDMYLKVPQYLSDLRHVRGGWQKPRNLTVTIPHRGVIPPTLAIDDAEECLYRVWWTYSKKIAYGNGVGYILDRRLIQAALNPFDGFNALLMKLLTNPYDYRLEKEYLSLNMQYEDMHIGKQIRDHHDAVERFCPKKRVCYMADRRFRAHQILRPKPVKLTWISVMAHFGMPAIPYYVHYFHKNEFKVAEEAKRLIAQGIDAKTIEENATQRMHEWVASQVPSTLVGLGASFHLDWVRGDPHTAYTVAEEDEVAVYDVRYKLRRRNDVACVLESGKR | not soluble |
| MEWTEEIVSKGFALYVALSKKGFITSKEDEYFQWYEERGVQDFIRKVIEPTGKVMIFLDEQDGVIQMVPEVENETMSYTNDDLKKELGFKDNKEIHLFYFILFILIAELEQPYDTESADRMYLPMDELLDKMNGYIEQYERLGEEKLEELSDEYDVDVAGIVEAWGRMADFKEGATSHIRTKDNRRMYIEKTLKFLEKEKLIRIREHTNISVTNKMKNIISHYYHNVENKSKIHDLLLVTREGTVGEEEE | not soluble |
| MTAFIKFDGKKSSDFDLRIINDVEHDSSFYDVDQVKVPGRDGVVLKDNKRLEAIERSYPLRLYSKRRLTEVETDISNWLNVKGWKDLELSWEPDYIYKATHITPFSIKEVLRNFGRLKINFLIHPIKYLKTGKQEVPLVNGGTLQNPGNVQAKPILKIKGTGNGILTINDFETGLENVQSELVIDMERHLVYKDVLSAWDNIVRTERHRMPLFDVGQNKISWTGSFTITAVPNWGVKV | soluble |
| MPAKIPITDNHMHIDPRARGLEAVKEFKNSGGTHIILVTKPSWSLGIAVKKPEDYLAVFDETVEIASKIREIGVGAFPVLGVHPAEISKITEYMDLSEAVETMKKGLELAAGYVERGLAVGIKSGRPHYPVPSDVWEASNEIMEHAFSLGKEQDCAVQLHTESVQEPELKDIAERARKTGIKMYRVVKHYSPPLVKTCEELGIFPGVISVKGAIEKAIEEGTRFMMETDYIDDPDRPGAVLGPKTIPKRTIKLMETYGEEPFWTIHKENPEKVYDIEIEL | not soluble |
| MIYINLYNSNQMTKGILIAGTHSGVGKTTVSMGIMAALKHRQLKVQPYKVGPDYIDPSHHTAICGRPSRNLDTYLMGTEGVRQTVARTSADADIAVVEGVMGLFDGIDSTEVASSAHVAKTLDIPVILVINVHGMSRSAAALLKGYSEFDPEVRVAGVILNQVGSPRHAELVKNSLPGNIPIIGTIPRRKDIEVPSRHLGLYMAHEK | not soluble |
| MSLTIVAMNDVVKSFTGDIILEKVSLQLEEGERVGLIGRNGEGKSTILKILKGTEGVDSGIVTSKKGAKIGLLEQLSTVDPNIIVEQYLRTSFGELEELEKELRALEGEMATNSSEKLMNRYGDKMALFGELGGYEMDANLNKVVNGLGIGSLLSQRWGDLSGGEKTKVALAHLLLQKTDLLLLDEPTNHLDLMAVEWLTAFLQHYSGTVLVVSHDRYFLDEVVEKMVELENRELIVYHTNFSGYLKEREERLLREFQDYKDQQKKIKKMQQAIKRLRQWAMQANPPNDAMFRRAKNMERALERMEKVKRPVLTQKQMQLQFDEAGRSGQEVVVMENLSKSFSEKAIVQDVSLQIRQGERVAIIGENGAGKSTLLKIMEGKVVPDVGMIKVGASVKIASLSQQMEELNEKLTVLDAFRDKVAVTEGEARQMLAGFMFYGEMVFRKVGNISGGERMRLRLAQFINMPVNTLILDEPTNHLDIASREILEEAIRAFSGTIITVSHDRYFIDQLCSKVIWLENKQLTVYEGNYSYATSKREGHHHHHH | not soluble |
| MGSDKIHHHHHHMIHTREEQMEAFGRFLDILDELRVKCPWDRKQTNESLRPNTIEETYELCDALMRDDKKDICKELGDVLLHVAFYAKIGSETGDFDIKDVCDKLCDKLIFRHPHVFGEVKAETAGQVSENWEQLKLKEKDGNKSVLSGVPSALPSLIKAYRIQDKARNVGFDWEEREQVWDKVKEEIREFQVEVANMDKEKAEAEFGDVMFSLINAARLYKINPDNALELTNQKFIRRFNYLEEHTIKEGKNLKDMSLEEMDAIWNEAKRKGL | not soluble |
| SPSAEERQKEERTAGLNETVPQATDGELPDDKLKGYELGRDEEKESHRQETLGNLYDYFEKKDETREQEISEEAASDGLHPIERSVSRYEETSQMVHSFYEPPAYDYEKEALREELDMIRSELATLKEEKEEEIDHLELLEKSYRMAAKYFPASGDANSRDAYTRSQERPADAPAPKTAVTAERAALPAVELLPEKKAIVSSLDQPMSDSAFIAEYGHKERNFGFRSADVPASSVTRNTLRVVVDRTTTLQHGDFVQLRLLESARLHDLSIPRHTRLMAQARIDGNRMKLHITSIEYGGRIVSVQLSAFDTDGQEGVFIPGSEEVSALKE | not soluble |
| MANLGETLKQLRKQRRWTQEQLAEQLNVSRSQISKWENGSLLPDVQSLEKLCQLFNISADFLLGGETRQRELLREVTDMYGTADVHETVLAALDYLLHNQEMSEAMYALAKLPDKKRKHVETMIMTIVKECSELI | not soluble |
| KRVFGFVSAKGGDGGSCIAANFAFALSQEPDIHVLAVDISLPFGDLDMYLSGNTHSQDLADISNASDRLDKSLLDTMVQHISPSLDLIPSPATFEKIVNIEPERVSDLIHIAASFYDYIIVDFGASIDHVGVWVLEHLDELCIVTTPSLQSLRRAGQLLKLCKEFEKPISRIEIILNRADTNSRITSDEIEKVIGRPISKRIPQDEDAMQESLLSGQSVLKVAPKSQLSKTIVDWALHLNGVSRPNKRSIWERLKIK | soluble |
| METKYAFARQIIKEAGLFIKSKMSEQLDIQVKTQFDDLVTNVDQETQQLLMDRIHQTYPCDAILAEENDVRHPINQGNVWVIDPIDGTVNFIVQGSQFAVMIAYYEQGIGQFGLIYDVMADQLLAGGGDFEVTLNGDKLPAYQEKPLERSLIGCNAGMFARNDRNLAHLIAKTLGVRVYGGAGICMVKVMKQELLAYFSFIQPWDYAAAKVLGDKLGYVLLTIDGYEPDFQTRQKIMFVPKCQLTRIASFLTKDSAITLEDQ | not soluble |
| MPDAVVVGAGPNGLVAANLLADAGWSVTVLEEQPEPGGAVRHDGEVAPGFVNDLFSSFYPLAAASPVLGGLRLEEHGLRWAHAPHVLAHPLTDGTCAVLDRDVATTAASLDAFALGDGAAWERLHAVWDRYRADILDALFTPFPPVRATARLALRLRGAGGLRLARTLVLPVRRMGEEEFRGEGGRLLLAGNALHADLAPEAAGSGGFGWLMSMLGQTYGFPVPVGGSGALTEALVHRLRARGGTLHCGRRVERVLVRDRRAVGVRTADGETVTARRAVLANVSVPALYGRLVAPADLPDQVLTDLRRFQWDFATFKVDWALDGPVPWQCEAAARAGTVHLSDGLDELTRFAAQIAMRQVPDRPFSLFGQMTTTDPTRSPRGTESAWAYTHVPHDIRADAGEEGITGTWDTGERELMADRVERQVERFAPGFRALIRARRVLAPPTLQALDANLEGGAINGGTTAMHQQLVFRPVPGTGRPETPVAGLFLASAGAHPGGGVHGAPGANAARAALRQHRFAGLARIQRALTRRDRAGDRHLEHHHHHH | not soluble |
| MPQEKMARLYNLNYTIASQVNPHVVPFMQSDASRYRKDILSWPQRILRRQGKVISLGIMDFTRERLGNVPPVRRLLDHGYGIVGQRYYGDVNIIAPFNLRQYAYMLQNPRPHLFKLLQQQGERATWPKISAIETHARIGKTIQHCIEVLDYQKNRYIQAEKASALEHHHHHH | not soluble |
| MGSDKIHHHHHHMKISCKNVGVILPIFNSSHRSFKKTFLQAASGGRIGSSNTGIIEVEALKKIDFTLTEGNRLALIGHNGSGKTTLLRVLAGAYKPTSGKYECIGRVTSLIDPMMGMDGELTGLENIKLRGLFLGLSKNEIKNITEDVIEFSELGDFIKIPVRTYSSGMVLRLGFSISTAINPEILLMDEWMSVGDSDFKRKAEMRLNSFISKAGIMVMATHDDELAKSVCNKFIRLEHGEIVSKGGF | not soluble |
| GPGSMLQSLVNSIVFVPPRDPNSLQRVQLLQRKRHMSFTSKKSGERISYFHFDPKGDLVTKDNPERVVRSSMVLLFHHGNAEDLGSAFSYAQSMACVFGVAVVVYDYCGYGFSGFPDAAKPAEVTEKSVYSDADHMYAHLLSLGYPAHRIIIVGRSVGGGPACYLAEKHHKKVGGLVLISTFTSCLRVVSSCCLPYLCCCVDLFPNYRRIEHIMECPVLVMHGTHDNVVPHHCSSELLEDIVARRNNALQRLLKKREGARANQAKRSSVLGAASTGPTNTTTASATIIVADEALVTAQPPLDGETVSVFDLYRRAYDGLPEAVRRVAEGRLDVTAADASIGVFHRWFAGCGHNDIEAREGHAFSDMFDYFVRFSTAFSMEREALLLAKPVTGAAKASRDSLNRADSEVRE | not soluble |
| MELSDSKVIAADRATVWAALLSPEVLKECVPGCQEMSGSPDEGFEATVVQKVGPVKATFKGGVTLSEMVAPESLTLSGEGKGGAAGFAKGAARVRLEEGADGTTILSYEVEAKVGGKLAQLGSRIIDGFARKMADQFFTRFQEVLEGPGEAESPEAEASGDAKKKGWFKRVISGLEHHHHHH | soluble |
